According to patent publication US6991909B2, “Enkurin and uses thereof” (University of Massachusetts, priority 2002, dated 2006):

T1: enkurin-HA (Mus musculus (Mouse)) (UniProt Q6SP97)
T1 sequence: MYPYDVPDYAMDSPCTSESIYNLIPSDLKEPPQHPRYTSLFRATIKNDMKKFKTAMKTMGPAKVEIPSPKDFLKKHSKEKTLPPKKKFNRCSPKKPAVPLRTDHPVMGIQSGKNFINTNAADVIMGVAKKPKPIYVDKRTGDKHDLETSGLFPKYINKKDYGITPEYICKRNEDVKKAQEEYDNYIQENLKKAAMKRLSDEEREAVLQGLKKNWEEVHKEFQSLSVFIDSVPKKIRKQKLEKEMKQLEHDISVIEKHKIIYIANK

T2: TRPC2 stably expressed in HEK-293 cells (mouse, UniProt Q9R244 1-1172)
T2 sequence (looked up): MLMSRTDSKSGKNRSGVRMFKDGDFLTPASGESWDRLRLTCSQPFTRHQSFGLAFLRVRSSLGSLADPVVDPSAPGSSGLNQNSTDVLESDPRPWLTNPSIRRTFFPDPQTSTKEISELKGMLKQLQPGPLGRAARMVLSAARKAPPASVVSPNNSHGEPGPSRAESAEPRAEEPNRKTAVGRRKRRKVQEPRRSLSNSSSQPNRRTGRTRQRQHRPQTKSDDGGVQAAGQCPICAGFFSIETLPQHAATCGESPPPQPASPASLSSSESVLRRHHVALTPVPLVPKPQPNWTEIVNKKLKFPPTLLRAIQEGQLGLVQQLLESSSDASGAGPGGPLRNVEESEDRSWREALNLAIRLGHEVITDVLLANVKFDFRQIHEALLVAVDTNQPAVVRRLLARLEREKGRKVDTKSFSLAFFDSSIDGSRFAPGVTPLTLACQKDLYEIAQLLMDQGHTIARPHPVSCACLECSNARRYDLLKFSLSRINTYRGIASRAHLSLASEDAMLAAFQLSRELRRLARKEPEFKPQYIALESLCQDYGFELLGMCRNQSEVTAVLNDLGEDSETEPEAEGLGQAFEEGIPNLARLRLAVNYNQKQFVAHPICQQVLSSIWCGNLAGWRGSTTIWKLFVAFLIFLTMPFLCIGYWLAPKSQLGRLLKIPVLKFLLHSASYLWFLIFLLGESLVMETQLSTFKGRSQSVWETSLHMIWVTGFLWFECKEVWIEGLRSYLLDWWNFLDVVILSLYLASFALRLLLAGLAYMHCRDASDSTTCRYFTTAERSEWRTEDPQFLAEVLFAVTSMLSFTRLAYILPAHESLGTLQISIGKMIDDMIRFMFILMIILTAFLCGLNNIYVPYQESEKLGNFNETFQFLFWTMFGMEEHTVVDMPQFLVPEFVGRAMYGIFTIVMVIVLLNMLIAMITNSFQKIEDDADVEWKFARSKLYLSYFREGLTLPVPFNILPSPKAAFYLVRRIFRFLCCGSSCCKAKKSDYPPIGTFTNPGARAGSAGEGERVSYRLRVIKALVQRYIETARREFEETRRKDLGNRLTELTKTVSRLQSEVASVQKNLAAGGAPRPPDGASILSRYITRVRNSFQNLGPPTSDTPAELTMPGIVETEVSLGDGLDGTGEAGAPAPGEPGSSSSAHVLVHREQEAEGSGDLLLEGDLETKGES

B1: enkurin (other)
chain: MDSPCTSESIYNLIPSDLKEPPQHPRYTSLFRATIKNDMKKFKTAMKTMGPAKVEIPSPKDFLKKHSKEKTLPPKKKFNRCSPKKPAVPLRTDHPVMGIQSGKNFINTNAADVIMGVAKKPKPIYVDKRTGDKHDLETSGLFPKYINKKDYGITPEYICKRNEDVKKAQEEYDNYIQENLKKAAMKRLSDEEREAVLQGLKKNWEEVHKEFQSLSVFIDSVPKKIRKQKLEKEMKQLEHDISVIEKHKIIYIANK

How the values were obtained:
[1] = biological target: T1, enkurin-HA (Mus musculus (Mouse)); assay: co-immunoprecipitation with anti-HA-Sepharose from HEK/TRPC2 cell extracts, blot with anti-RDAS; peptide competes with TRPC2
[2] = biological target: T2, TRPC2 stably expressed in HEK-293 cells; assay: cell-based or functional assay
TRPC2 channel = assay: Perforated whole cell patch clamp of ATP-evoked currents in HEK-293 cells stably transfected with TRPC2; format: cell-based, mouse
Description: The effects of enkurin on the ion channel activity of TRPC2 were examined using HEK-293 cells that were stably transfected with TRPC2. HEK cells provide a good model for the study of receptor-activated ion channels since they have very low levels of endogenous ion channel activity and thus provide a relatively uncomplicated model for the study of exogenous channels. These cells also have endogenous […] receptors that regulate phospholipase C (PLC), thereby providing a facile and reversible means for activating PLC-dependent ion channels, HEK cells have been used to study TRPC2 function (Jungnickel et al., supra 2001).
In experiments on the TRPC2 channel in HEK cells, ion channel activity was measured using the perforated, whole cell patch clamp. This configuration permits the determination of ion currents while simultaneously maintaining cytoplasmic integrity.
ATP ([…]) evoked an inward current in TRPC2-expressing HEK cells (Derassi et al, 1998, Trends Cell Biol 8:84-87) that reaches peak amplitude in 20-30 seconds. However, when TRPC2 and enkurin were co-expressed (trace 2), the evoked current was 5-6 times larger (131+/−12 pA, n=5). This current activates about 25 times faster (peak amplitude in 0.5-1 seconds) and inactivates more rapidly. Total TRPC2 current, as estimated by integrating the areas beneath these traces, is increased nine +/−two-fold by enkurin. […] Anti-RDAS blocked >95% of the ATP-evoked current in cells that had been co-transfected with TRPC2 and with enkurin (trace 2). Thus, enkurin is stimulating TRPC2 currents, not acting at some undefined endogenous channel or forming a channel itself.
In the assay, HEK cells are used that constitutively express TRPC2. Such cell lines can be produced using methods known in the art. The line should express reproducible levels of TRPC2 current. In a line that we developed, enkurin increased the peak amplitude of ATP-evoked TRPC2 currents by >5-6 fold and the activation and inactivation rates by 25 fold. In addition, this signal can be “zero-ed” using anti-RDAS, the TRPC2 blocking antibody (FIG. 7). Given this magnitude of current enhancement by enkurin in such a cell line, even subtle effects of enkurin mutants, candidate compounds, or antisense molecules are detectable.

[3] = TRPC2 and enkurin co-expressed vs TRPC2 alone

| Molecule | reduction of co-immunoprecipitation of TRPC2 with enkurin-HA [1] | activation rate of the ATP-evoked current [2] | total TRPC2 current (integrated area beneath traces) [2] | time to peak amplitude (TRPC2 channel; TRPC2 and enkurin co-expressed) | current activates faster (TRPC2 channel; [3]) | increase of peak amplitude of ATP-evoked TRPC2 current (TRPC2 channel; [3]) | increase of total TRPC2 current, estimated by integrating areas beneath traces (TRPC2 channel; [3]) | ATP-evoked current (TRPC2 channel; TRPC2 and enkurin co-expressed, n=5) | stimulation of ATP-evoked current relative to TRPC2 alone (TRPC2 channel; enkurin co-expressed with deletion mutant of TRPC2 lacking the PKD1 domain) |
| --- | --- | --- | --- | --- | --- | --- | --- | --- | --- |
| LPQHAATCGESPPPQPASPASLSSS [TRPC2336-361 peptide] | > 90% | – | – | – | – | – | – | – | – |
| B1 | – | ~25 fold | 9 fold | 0.5 to 1 s | about 25 times | 5-6 fold | nine +/−two | 131+/−12 pA | no stimulation |
